From the supplement of paper PMC12636428

System: Saccharomyces cerevisiae
Test: transcriptional activation domain activity (GFP:mCherry ratio, weighted mean of sorted bins, harmonized to initial dataset scale) (arbitrary fluorescence ratio units); higher = stronger transcriptional activation
Conditions: beta-estradiol 1 µM; induction time 4 h
Procedure, shortened: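 Each value is an activation activity: the read-weighted mean of bin median fluorescence, averaged across barcodes, then mapped linearly to the initial dataset scale. The tiles, fused to an estradiol-inducible synthetic transcription factor, sat at the yeast URA3 locus in GFP-reporter diploids. Cells spent 4 hours at 30 °C in SC with 1 uM beta-estradiol before sorting into 8 GFP:mCherry bins, and tiles below 50 reads were removed.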

Row | Sequence | transcriptional activation domain activity
1 | EKNKAEKKVKTPKSPKKEKKKEEPAAAAVEEPAKEEAAPAEAPAAPVEEPAKV | 22800
2 | AADGSPAPRPNAICIHEVDQGIQWKHTNHRTGKAVVVRKRQLVLQQIITVANY | 44500
3 | STLVFLKLYSSLMLGTCLTSILCFSLPDFFPGKRGFAIGLCLYHSICSTVLFQ | 63900
4 | KRRRWQLALLLLFWFAWLATFITVIHNSRFVSKVNGQDPYLLSCTSVLWSKNN | 47100
5 | KLLCVGRPFRASSTEVVVTMALLSMLRHLPTTRWKDSLKLLAWVLEQYIYRFT | 51000
6 | IIVICSVALYKVVSITGVGLVCLLLAGYLCFFNLFCSNVIRLSLLFLPINARP | 58000
7 | MTEDEGKPRRKRARLACTACNARRVKCNVTESRPCHNCIAGNVLCETVPSRRG | 36100
8 | PGKCINEFIEVVCKLADSGRLSLRMLVDIVVLFWNLTRVHCEQFSHKFLRLLH | 15900
9 | MSSPTSSLFFVSPPVGCYRYLLFFFFSSFWLLFVFLRSVPFGPTLLLFFFYFN | 42400
10 | FGLFGPLDFLDFLDLWTFWTFWTLNFLDFWTFGLFGLLALDLDFLDFLDFLDL | 57800
11 | SASEIRVDSFRKIMSIPLAIFTLRPRHVFVAVRRVCRSCTNYLVVLALYMALF | 51800
12 | PARAHGNRDDERGGGVRGGVPADARATLARRVQPHPLARARARVCAGAAVRGE | 48600
13 | VFIAVLSCVGTCGASYLCISFMPLVCHNSPYYTPLSSLIWSCRAGLRCLYLWI | 55300
14 | MMHLSIRDEQKVSLCLTIYLFIFFFFFLILFLWLEGVYLFFLLMTFFLRPYSS | 43800
15 | DIFGQMKDFTERCHMYLDGNITLPISLHQKLVEIFSHLLCLIGMITRDMKRGW | 32500
16 | DLDNDIDFETAYQMLSSNFDDQMSAHIHENTFSATSPPLLTHELGIIPNVATV | 95500
17 | PDEVASEASQPAEPAAASRAESPAAASVYEEAREPQEVQEERVASPVVAATPA | 48300

Row | Sequence | transcriptional activation domain activity
18 | RPPPRPPPQTPASPSPSPTSTTPPRSPSASRASPARPHPPSGRRTRTTRAPRR | 56300
19 | MFCFFEFLFFYKEDLAAYALCSCSQLPASFFLFLFPSPLWLFFFFFIFCLTFM | 38900
20 | GTKKEEKGEKDKTETKKSKKSSKHNKVTSKKSSSKKSTRKAAISDADSSDDSS | 35100
21 | GGGGAGEEDAKGKARADEDVRESSRAKSTSKRKTSAAASGSESDSASSSSSYS | 14900
22 | MISFPLFDPVVFNPFLFYDILSSFCSCFSFFFSLLFFPILQYPFLFFSCFFIA | 60100
23 | MWGVLCNWLKHNGMVFSVQCFTFDFLFSFPLSLFFPFFLFSFFLFFLYSFAII | 50100
24 | IQNEDKFAESKNLSLDEFLKIFNGIYYERLRYDFNVVVIILLLTLFNHCKDFY | 52700
25 | MLLTLLLLYILRRCAHTSYIFFSHSGFDFGHLIWGWVSCRLLTFWFLLYSSLL | 33100
26 | TEQSVFVGLLLYRLKYPANLVSLVLKLSAVQSTLFKVVFAVYLLVWWGIKQAR | 63100
27 | MLAMISFFMYPPPLLFFFALWLSFSLFSIHKPPWLLFQNVHFYVLFLFFSFLA | 36300
28 | TECASIPFAKMRALLNGIPVTNLNDRDRMMLFIFKLVLLEVRSKNTLEILSNH | 33400
29 | LPRFFFLSFYTFLLIFPLLHLFHHLSLLFSPPILLYSSLILFFSHFLPLLLFL | 38900
30 | MSEREREHRGGRQDRLTGRSRSRSVRRHEKGDKGADDGRQARERHRSRSPARK | 27400
31 | MTRAFTIMINLITIVLSFLMSQSFTSYVCHILLCPLANLRPQLLYIWWVSPVL | 54200
32 | ELLNAIVLVHMKLETGDLPPIVSRHIGRFAEQVLSKTPIHLIVTTSFRTLHKI | 73400
33 | TLFTGMHKNIIRLLPYRVARILYILLRVVRPVELMPILKFWIPVGNNKANAAV | 40700
34 | RRRRAKSRDPERVRERSERRASRSPEKKDKSARSKSRLGRLAAGAAAAGAAAI | 42800
